Patent US20220024979A1 (NANYANG TECHNOLOGICAL UNIVERSITY, published 2022)

Molecular target: the molecule itself
Experiment: solution 2D 1H-1H NOESY NMR, 20 mM peptide
Method: NMR: All solution state NMR experiments were carried out on a Bruker 700 MHz spectrometer equipped with a cryoprobe. NMR data were processed with TOPSPIN (Bruker), then analysed using Sparky (W. Lee et al. Bioinfo. 2015, 31, 1325) programs. 0.5 mM or 20 mM GV8 peptides were dissolved in water, pH 6.8 with 10% D₂O for deuterium lock and DSS for signal reference. Two dimensional (2D)¹H-¹H TOCSY and NOESY spectra were acquired with 80 ms and 200 ms mixing times, respectively. In order to monitor hydrogel formation, 1D ¹H spectrum and a series of 2D ¹H-¹H NOESY spectra were recorded every four hours for 20 hours using the 20 mM peptide solution. For H/D exchange experiments, 0.5 mM and 20 mM peptide samples were dissolved in 100% D₂O and 2D ¹H-¹H TOCSY spectra were recorded at 30 min intervals. The extrinsic exchange rates were obtained by fitting the peak intensity vs. time to a single-exponential decay equation. The protection factor were calculated as the ratio of intrinsic exchange rates (calculated from SPHERE (Bai et al. Proteins. 1993, 17, 75)) to the extrinsic exchange rates. […] Amide temperature coefficients were also determined by recording 1D ¹H spectra of 0.5 mM and 20 mM GV8 peptide at 298 K, 303 K, 308 K and 313 K. Amide proton chemical shift deviations were fitted linearly against temperature and the temperature coefficients were calculated as σδHN/ΔT (ppb K⁻¹).

B1: Ac-GLYGGYGV-NH2 (GV8) peptide (peptide)
peptide: Ac-GLYGGYGV-NH2
notes: Synthetic 8-residue peptide, a repeat derived from suckerin-19; It is entered only for its self-association (dimer or oligomer in solution at 20 mM, antiparallel beta-sheets in the hydrogel); For the ssNMR experiments the peptide was uniformly 13C-15N labelled
B1: binds.
